Assay results from patent publication US12365904B2, “Thrombin binding circular aptamer and use thereof” (Hefei University of Technology, priority 2019, dated 2025).
Numbering of substitutions follows the chain as printed.

B1: TBCA: Circular DNA aptamer, SEQ ID NO:1, 5′ end and 3′ end connected to form a ring (nucleic acid)
DNA: ATCTCGACTAGTCATAGGGGGCGCGAACATACGCGGTTGGTGTGGTTGGCTGACAATACTCGTTTTTGGTGTCTCGGAT
modifications: DNA, backbone and methylation of C not given here; circular: 5' and 3' ends joined to form a ring
B2: M1: Substitution variant of TBCA, SEQ ID NO:3, N is a random nucleotide (nucleic acid)
DNA: B1 DNA with A1N, T2N, C3N, T4N, C5N, G6N, A7N
modifications: DNA, backbone, methylation of C and the base at N not given here; circular: 5' and 3' ends joined to form a ring
B3: M2: Substitution variant of TBCA, SEQ ID NO:4, N is a random nucleotide (nucleic acid)
DNA: B1 DNA with C8N, T9N, A10N, G11N, T12N, C13N, A14N
modifications: DNA, backbone, methylation of C and the base at N not given here; circular: 5' and 3' ends joined to form a ring
B4: M3: Substitution variant of TBCA, SEQ ID NO:5, N is a random nucleotide (nucleic acid)
DNA: B1 DNA with T57N, A58N, C59N, T60N, C61N, G62N, T63N
modifications: DNA, backbone, methylation of C and the base at N not given here; circular: 5' and 3' ends joined to form a ring
B5: M4: Substitution variant of TBCA, SEQ ID NO:6, N is a random nucleotide (nucleic acid)
DNA: B1 DNA with T64N, T65N, T66N, T67N, G68N, G69N, T70N
modifications: DNA, backbone, methylation of C and the base at N not given here; circular: 5' and 3' ends joined to form a ring
B6: M5: Substitution variant of TBCA, SEQ ID NO:7, N is a random nucleotide (nucleic acid)
DNA: B1 DNA with G71N, T72N, C73N, T74N, C75N, G76N, G77N, A78N, T79N
modifications: DNA, backbone, methylation of C and the base at N not given here; circular: 5' and 3' ends joined to form a ring
B7: D1: Deletion variant of TBCA, SEQ ID NO:8 (nucleic acid)
DNA: ATCTCGACTAGTCATAGGGGGCGCGAACATACGCGGTTGGTGTGGTTGGCTGACAATACTCGTGTCTCGGAT
modifications: DNA, backbone and methylation of C not given here; further chemistry not fully specified
B8: D2: Deletion variant of TBCA, SEQ ID NO:9 (nucleic acid)
DNA: ATCTCGACTAGTCATAGGGGGCGCGAACATACGCGGTTGGTGTGGTTGGCTGACAATACTCGT
modifications: DNA, backbone and methylation of C not given here; further chemistry not fully specified

How the values were obtained:
[1] = target: thrombin (Homo sapiens, UniProt P00734); test: Inhibition of thrombin-catalyzed conversion of fibrinogen to fibrin, absorbance at 350 nm; type: biochemical; settings: for IC50: thrombin concentration of 0.1 nM, fibrinogen 2 μM
Protocol: (§1) Thrombin (0.1 nM) and fibrinogen (2 μM) were incubated with TBCA and Lib of different concentrations separately in buffer systems (total reaction volume of 100 μL) for a certain amount of time (till reaction equilibrium was reached), and the IC50 values of TBCA and Lib were calculated by fitting of the absorbance of the reaction system measured at 350 nm on a microplate reader.
The inhibition of thrombin-catalyzed conversion of fibrinogen to fibrin by TBCA and the random circular nucleic acid (Lib) was compared.
as §1, with “TBCA, M1, M2, M3, M4, M5, D1, D2” for “TBCA”, “D3” for “Lib”

[2] = Incubation in 50% serum at 37° C., electrophoresis, gray values of bands (biostability, half-life); type: in vitro ADME; settings: 0.5 μM
Protocol: Incubation of 0.5 μM of TBCA and TBA each (nucleotide sequences thereof are shown in SEQ ID NO:1 and SEQ ID NO:2, respectively) was performed in 50% serum at a temperature of 37° C. Samples were taken for electrophoresis at 0 min, 1 min, 2 min, 5 min, 10 min, 30 min, 60 min (1 h), 120 min (2 h), 240 min (4 h), 480 min (8 h), 720 min (12 h) and 1440 min (24 h), respectively.

Molecule | IC50 [1] [nM] | other results
D3: Deletion variant of TBCA, SEQ ID NO:10 (DNA ATCTCGACTAGTCATAGGGGGCGCGAACATACGCGGTTGGTGTGGTTGGCTGACAA; DNA, backbone and methylation of C not given here; further chemistry not fully specified) | 0.13 | 
TBA: Existing thrombin binding aptamer, 5′-GGTTGGTGTGGTTGG-3′, specifically targets α-thrombin [reference compound] | 1.3 | half-life [2]: approximately 2 min
B1 | 0.15 | half-life [2]: about 8 hours; half-life ([2]; listed as thrombin binding circular aptamer): up to 8 hours; inhibition effect on thrombin relative to Argatroban ([1]; thrombin 0.1 nM, ratio of IC50 values, TBCA vs Argatroban): 30 times; inhibition effect on thrombin relative to TBA ([1]; thrombin 0.1 nM, ratio of IC50 values, TBCA vs TBA): 13 times
B2 | 0.37 | 
B3 | 0.36 | 
B4 | 0.18 | 
B5 | 0.1 | 
B6 | 0.11 | 
B7 | 0.15 | 
B8 | 0.09 | 
